Reference: publication PMC11931385, “Structural and functional analysis of cancer-associated missense variants in the retinoblastoma protein pocket domain” (The Journal of Biological Chemistry, 2025)
Where a chain is given by its changes, count along the chain named. Names and notes keep the numbering of the source. No end group written: not given here. TMR = tetramethyl rhodamine dye

B1: TMR-E2F1^TD, peptide of the E2F1 transactivation domain (peptide)
peptide: {TMR}-GEGIRDLFDCDFGDLTPLD
notes: also called E2F^TD; source: synthetic peptide, bought: GenScript
B2: TMR-E7^LxCxE, LxCxE peptide of the E7 oncoprotein from HPV (peptide)
peptide: DLYCYEQLN
modifications: also: TMR label, position not given here
notes: source: synthetic peptide, bought: GenScript

Columns and labels:
Test in all cases: fluorescence polarisation; 25 °C; unlabeled Rb^P titrated against 1.5 nM TMR-E2F1^TD or 7.5 nM TMR-E7^LxCxE; 25 mM Tris pH 8.0, 200 mM NaCl, 1 mM DTT, 0.1% Tween-20; 2 min incubation; quadratic fit; apparent Kd for the variants, Kd for WT
Settings in all cases: both partners purified
[1] = molecular target: T1, Rb^P K462T (human, UniProt P06400 380-788, K462T)
T1 construct: also called variant 9
T1 sequence (looked up): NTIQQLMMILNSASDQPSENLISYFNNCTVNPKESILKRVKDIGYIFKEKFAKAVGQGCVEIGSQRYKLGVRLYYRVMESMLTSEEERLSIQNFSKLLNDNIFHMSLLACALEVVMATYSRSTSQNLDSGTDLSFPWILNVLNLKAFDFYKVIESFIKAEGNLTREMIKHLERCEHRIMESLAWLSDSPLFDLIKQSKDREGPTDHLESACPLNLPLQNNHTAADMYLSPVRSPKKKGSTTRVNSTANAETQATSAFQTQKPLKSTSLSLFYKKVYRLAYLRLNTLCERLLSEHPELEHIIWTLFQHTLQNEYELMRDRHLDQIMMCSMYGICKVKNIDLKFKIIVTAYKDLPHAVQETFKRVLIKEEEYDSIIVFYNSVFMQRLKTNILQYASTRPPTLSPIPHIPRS

[2] = molecular target: T2, Rb^P T620M (human, UniProt P06400 380-788, T620M)
T2 construct: also called variant 40
T2 sequence (looked up): T1 sequence (looked up) with T83K, T241M

[3] = molecular target: T3, Rb^P S474I (human, UniProt P06400 380-788, S474I)
T3 construct: also called variant 11
T3 sequence (looked up): T1 sequence (looked up) with T83K, S95I

[4] = molecular target: T4, Rb^P Q444L (human, UniProt P06400 380-788, Q444L)
T4 construct: also called variant 3
T4 sequence (looked up): T1 sequence (looked up) with Q65L, T83K

[5] = molecular target: T5, Rb^P E675Q (human, UniProt P06400 380-788, E675Q)
T5 construct: also called variant 56
T5 sequence (looked up): T1 sequence (looked up) with T83K, E296Q

| Binder | Kd [1] [nM] | Kd [2] [nM] | Kd [3] [nM] | Kd [4] [nM] | Kd [5] [nM] |
| --- | --- | --- | --- | --- | --- |
| B1 | 30 | 24 | 364 | 14 | 35 |
| B2 | 8 | 6 | 7 | 4 | 20 |
